Earlier results on 1 substance are cited in PMC3937638.

For the data set, the target named is His45 (UniProt position 80, RKIGFHVCAAG). Conditions: HA8(AN)-bound Link_TSG6.

The pKa is the pH at which an ionisable group is half protonated. As for “TSG-6 Link module (Link_TSG6; tumor necrosis factor-stimulated gene-6 protein, hyaluronan-binding domain) (Homo sapiens)”, the pKa is 5.7.
